# Experimental data taken from patent publication US20260234660A1 (Regeneron, published 2026).
# Read-outs that look alike come from different tables or passages of the source.
# B1: REGN14573-M3004 (antibody, V domains shown)
# VH: EVQLVESGGNLVQPGGSLRLSCAASGFTFTSHAMNWVRQAPGKGLEWVSVITGRGFDTHYADSVKGRFTISRDISKNTLYLQMNSLRAEDTAVYYCAKGLYDSGNYYIDYWGQGTLVTVSS
# VL: QSVLTQPPSVSAAPGQKVTISCSGSSSNIGNNYVSWYQQLPGTAPKLLIYDNNKRPSGIPDRFSGSKSGTSATLGITGLQTGDEADYYCGTWDLSLSFNWVFGGGTKLTVLG
# modifications: N180Q in the constant region; linker-payload M3004 (VC-PAB linker, DHT), DAR ~4
# B2: REGN10713 (antibody, human IgG4 S228P, lambda, V domains shown)
# VH: B1 VH
# VL: B1 VL
# notes: also called antibody designation 11
# B3: REGN14572-M3004 (antibody, V domains shown)
# VH: QVQLVESGGGVVQPGRSLRLSCAASGFTFSTYGMHWVRQAPGKGLEWVAVIWHDGSDKYYVDSVKGRFSIARDNSKNTLYLQMNSLRVEDTGIYYCARRGIRGTVFDHWGLGTLVTVSS
# VL: DIQMTQSPSTLSASVGDRVTLTCRASQSISNKLAWYQQKPGKAPNLLIYKASNLESGVPSRFSGSGSGTEFTLTISSLQPDDFATYYCQQYNSYSWTFGQGTKVEIKR
# B4: REGN10717 (antibody, human IgG4 S228P, kappa, V domains shown)
# VH: B3 VH
# VL: B3 VL
# notes: also called antibody designation 3
# B5: REGN10716 (antibody, human IgG4 S228P, kappa, V domains shown)
# VH: QVQLQESGPGLVKPSETLSLTCTVSGDSINNYYWTWLRQPPGKGLEWIGYIYYSGSANYNPSLKSRVTISVDTSKNQFSLKLNSVTAADTAVYYCARGAVKYFRHWGQGTLVTVSS
# VL: EIVLTQSPGTLSLSPGERATLSCRASQTINHNNLAWYQQRPGQAPRLLIYGASNRATAIPDRFSGSGSGTDFTLTISRLEPEDFEVYSCQQYGSLPLTFGGGTKVEIKR
# notes: also called antibody designation 4
# B6: REGN14647-M3004 (antibody, V domains shown)
# VH: QVQLVESGGGVVQPGRSLRLSCTASGITFRNYGMHWVRQAPGKGLEWVAVMWYDGSNKYYADSVKGRFTISGDNSKVYLQMNSLRAEDTAVYYCARRGTIRTAAPFDYWGQGTLVTVSS
# VL: not shown
# modifications: N180Q in the constant region; linker-payload M3004 (VC-PAB linker, DHT), DAR ~4
# B7: H2aM31929N/REGN10728 (antibody, human IgG4 S228P, kappa, V domains shown)
# VH: B6 VH
# VL: not shown
# notes: also called antibody designation 1
# B8: REGN7660 (antibody, human IgG4 S228P, kappa, V domains shown)
# VH: EVQLVESGGGLVQPGGSLKLSCTASGLTLSDSAMHWVRQASGKGLEWVGRIRNKANRYATEYAASVKGRFTISRDDSKNTAYLQMNSLKTEDTAVYYCTRNWKIFLFDYWGQGTLVTVSS
# VL: EIVLTQSPGTLTLSPGERATLSCRASQSVGSKYLAWFQQKRGQAPRLLIYGASSRTSGIPDRISGSGSGTDFTLTISRLEPEDFAVYYCQQYGSSPWTFGQGTKVEIKR
# notes: also called antibody designation 9
# B9: REGN10783 (antibody, human IgG4 S228P, kappa, V domains shown)
# VH: QVQLVESGGGVVQPGTSLRLSCAASGFTFSSYGMHWVRQAPGKGLEWVAVIWIDGSNKYYADSVKGRFTISRDNSKNTLYLQMNSLRAEDTAVYYCARRGGIVVAAPFDYWGQGTLVTVSS
# VL: not shown
# notes: also called antibody designation 5
# B10: H2aM31941N (antibody, V domains shown)
# VH: QVQLVQSGAEVKKPGASVKVSCKASGYAFTTYGITWVRQAPGQGLEWMGWISAYNGNTNYAEKVQGRFTMTTDTSTNTAYMELRSLRSDDTAVYFCARKGHYGSGTYYNPFGFDFWGQGTMVTVSS
# VL: EIMLMQSPGTLSLSPGERATLSCRASQSVSSSYLAWYQQKPGQAPRLLIYGASSRATDIPDRFSGSGSGTDFTLTISRLEPEDFAVYFCQQYYGSPWTFGQGTKVEIK
# notes: also called antibody designation 8
# B11: H2aM31944N (antibody, mouse IgG2a, kappa, V domains shown)
# VH: QVQLVESGGGVVQPGRSLRLSCEASGITFRNYGMHWVRQAPGKGLEWVAVMWYDGSNKYYADSVKGRFTISRDNSKNTVYLQMNSLRAEDTAVYYCARRGHIATAAPFDYWGQGTLVTVSS
# VL: DIQMTQSPSSLSASVGDRVTISCRASQSISSYLNWYQQKPGKAPKVLMYAASSLQSGVPSRFSGSGSGTDFTLTISSLQPEDFATYYCQQSYSTPPITFGQGTRLEIKR
# notes: also called antibody designation 6
# B12: REGN14570-M3004 (antibody, V domains shown)
# VH: QVQLQQWGAGLLKPSATLSRTCAVYGGSFSGYYWNWIRQSPGKGLEWIGEILHSGRTNYNPSLKSRVTISVDTSKNQFSLKLTSVTAADTAVYYCAGRIAARHGWFDPWGQGTLVTVSS
# VL: DIQMTQSPSSVSTSVGDRVTISCRASQDIRKWLAWYQQKPGKAPKLLIYATSSLQSGVPSRFSGSGSGTDFTLTISSLQPEDFATYFCQQANSFPFTFGQGTKLEIKR
# B13: REGN10715 (antibody, human IgG4 S228P, kappa, V domains shown)
# VH: B12 VH
# VL: B12 VL
# notes: also called antibody designation 2
# B14: REGN9909 (antibody, mouse IgG2a, kappa, V domains shown)
# VH: EVQLLESGGGLVQPGGSLRLSCAASGFTFNNYGMSWVRQGPGKGLEWVSSISGSGGTTFYADSVKGRFTISRDNSKNTLYLQMNSLRAEDTAVYYCGKGGYCSSSGCRHYGMDVWGQGTTVTVSS
# VL: QSVLTQPPSASGTPGQRVTISCSGSSSNIGNNYIYWYQRLPGTTPKLLIYRNNQRPSGVPDRFSGSKSGTSASLAISGLRSEDEADYYCAAWDDTLSGYVFGTGTKVTVLR
# notes: also called antibody designation 10
# How the values were obtained:
# [1] = biological target: T1, human CACNG1, cell surface-expressed (human, UniProt Q06432 1-222); experiment: cell-based or functional assay
# [2] = biological target: T1, human CACNG1, cell surface-expressed; experiment: cell-based or functional assay; remark: listed apart in the source
# [3] = biological target: T1, human CACNG1, cell surface-expressed; experiment: cell-based or functional assay; remark: listed apart in the source
# [4] = biological target: T2, nanodisc embedded human CACNG1 expressed with a C-terminal PADRE-Flag-His tag (human, UniProt Q06432 1-222); experiment: SPR (Biacore T200), 25 C, anti-His-captured human CACNG1 nanodisc, antibody as analyte
# T2 construct: Membrane protein (gamma-1 subunit of the skeletal muscle L-type calcium channel) in a nanodisc; also called human CACNG1 nanodisc; CACNG1 nanodisc; not shown: C-terminal PADRE-Flag-His tag
# Description: Equilibrium dissociation constants (KD values) for nanodisc embedded human CACNG1 expressed with a C-terminal PADRE-Flag-His tag (human CACNG1 nanodisc) binding to purified anti-hCACNG1 antibodies were determined using a real-time surface plasmon resonance biosensor technology with a Biacore T200 instrument. The CM5 Biacore sensor surface was derivatized by amine coupling with a monoclonal mouse anti-His antibody (Cytiva; Marlborough, MA). All Biacore binding studies were performed in a buffer composed of 0.01M HEPES, 0.15M NaCl, 1 mM CaCl₂), 0.5 mM MgCl₂, pH 7.4 (HBS-N++ running buffer). Different concentrations of anti-hCACNG1 antibodies (ranging from 300 nM to 12 nM in 5-fold serial dilutions) prepared in HBS-N++ running buffer were injected over the captured human CACNG1 nanodisc at a flow rate of 30 μL/minute. Antibody association was monitored for 2 minutes while dissociation was monitored in HBS-N++ running buffer for 5 minutes. At the end of each cycle, the human CACNG1 nanodisc capture surface was regenerated using three 10 second injections of 10 mM Gly pH1.5. All binding kinetics experiments were performed at 25° C.
# [5] = biological target: T1, human CACNG1, cell surface-expressed; experiment: cell-based or functional assay; remark: listed apart in the source
# [6] = biological target: T1, human CACNG1, cell surface-expressed; experiment: cell-based or functional assay; remark: listed apart in the source
# [7] = biological target: T1, human CACNG1, cell surface-expressed; experiment: cell-based or functional assay; remark: listed apart in the source
# T1 sequence (Q06432 whole entry): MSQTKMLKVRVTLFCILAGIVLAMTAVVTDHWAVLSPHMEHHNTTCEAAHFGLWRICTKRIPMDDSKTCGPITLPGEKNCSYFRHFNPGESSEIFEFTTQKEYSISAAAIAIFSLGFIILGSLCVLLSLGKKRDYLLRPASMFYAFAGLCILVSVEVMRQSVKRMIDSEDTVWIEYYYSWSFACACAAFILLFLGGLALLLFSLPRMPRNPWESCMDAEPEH
# T2 sequence (Q06432 whole entry): as above
binder,measurement,setting,value
B1,"EC50; androgen receptor luciferase reporter (RLU), hCACNG1.AR.Luc LNCaP cells, 24 hours",[1],214 nM
same,"EC50; androgen receptor luciferase reporter (RLU), hCACNG1.AR.Luc LNCaP cells, 48 hours",[2],213 nM
same,"EC50; androgen receptor luciferase reporter (RLU), hCACNG1.AR.Luc LNCaP cells, 72 hours",[3],185 nM
B2,mAb Bound at 300 nM (RU),[4],53 RU
B3,"EC50; androgen receptor luciferase reporter (RLU), hCACNG1.AR.Luc LNCaP cells, 24 hours",[5],11.2 nM
same,"EC50; androgen receptor luciferase reporter (RLU), hCACNG1.AR.Luc LNCaP cells, 48 hours",[6],11.9 nM
same,"EC50; androgen receptor luciferase reporter (RLU), hCACNG1.AR.Luc LNCaP cells, 72 hours",[7],10.3 nM
B4,mAb Bound at 300 nM (RU),[4],7 RU
B5,mAb Bound at 300 nM (RU),[4],31 RU
B6,"EC50; androgen receptor luciferase reporter (RLU), hCACNG1.AR.Luc LNCaP cells, 24 hours",[1],6.75 nM
same,"EC50; androgen receptor luciferase reporter (RLU), hCACNG1.AR.Luc LNCaP cells, 48 hours",[2],6.04 nM
same,"EC50; androgen receptor luciferase reporter (RLU), hCACNG1.AR.Luc LNCaP cells, 72 hours",[3],7.36 nM
B7,mAb Bound at 300 nM (RU),[4],25 RU
B8,mAb Bound at 300 nM (RU),[4],23 RU
B9,mAb Bound at 300 nM (RU),[4],9 RU
B10,mAb Bound at 300 nM (RU),[4],19 RU
B11,mAb Bound at 300 nM (RU),[4],16 RU
B12,"EC50; androgen receptor luciferase reporter (RLU), hCACNG1.AR.Luc LNCaP cells, 24 hours",[5],2 nM
same,"EC50; androgen receptor luciferase reporter (RLU), hCACNG1.AR.Luc LNCaP cells, 48 hours",[6],5.83 nM
same,"EC50; androgen receptor luciferase reporter (RLU), hCACNG1.AR.Luc LNCaP cells, 72 hours",[7],6.65 nM
B13,mAb Bound at 300 nM (RU),[4],31 RU
B14,mAb Bound at 300 nM (RU),[4],22 RU
